What was measured:
[1] = PK studies in mice, rats, and cynomolgus monkeys (stated across species); assay type: in vivo; settings: cynomolgus monkeys
Method: (§1) PK studies. PK studies were conducted in mice, rats, and cynomolgus monkeys.
(§2) Mouse, Rat, and Cynomolgus Monkey PK data analysis. […] PK parameters were estimated using WinNonlin Enterprise Version 5.0.1 (Pharsight Corp., Mountain View, Calif.). The nominal dose administered for each group was used for modeling. Since a single concentration-time profile for mice was determined for each group, one estimate of each PK parameter was obtained and is reported, along with the standard error (SE) of the fit of each PK parameter. For rats and monkeys, PK parameters are reported as mean (+/−SD).
(§3) For IV administrations, a two-compartment elimination model with IV bolus input and first-order elimination was used to describe the observed data (WinNonlin Model 7). Concentrations were weighted using iterative reweighting (1/ŷ^2) and the Nelder-Mead minimization algorithm. The following equation was used to calculate concentration over time in Model 7: […]

c-met [2] = target: c-met (Mus musculus, UniProt P16056); assay: Binding to c-met in mice
Chain of c-met (Mus musculus, UniProt P16056) (P16056 25-1379): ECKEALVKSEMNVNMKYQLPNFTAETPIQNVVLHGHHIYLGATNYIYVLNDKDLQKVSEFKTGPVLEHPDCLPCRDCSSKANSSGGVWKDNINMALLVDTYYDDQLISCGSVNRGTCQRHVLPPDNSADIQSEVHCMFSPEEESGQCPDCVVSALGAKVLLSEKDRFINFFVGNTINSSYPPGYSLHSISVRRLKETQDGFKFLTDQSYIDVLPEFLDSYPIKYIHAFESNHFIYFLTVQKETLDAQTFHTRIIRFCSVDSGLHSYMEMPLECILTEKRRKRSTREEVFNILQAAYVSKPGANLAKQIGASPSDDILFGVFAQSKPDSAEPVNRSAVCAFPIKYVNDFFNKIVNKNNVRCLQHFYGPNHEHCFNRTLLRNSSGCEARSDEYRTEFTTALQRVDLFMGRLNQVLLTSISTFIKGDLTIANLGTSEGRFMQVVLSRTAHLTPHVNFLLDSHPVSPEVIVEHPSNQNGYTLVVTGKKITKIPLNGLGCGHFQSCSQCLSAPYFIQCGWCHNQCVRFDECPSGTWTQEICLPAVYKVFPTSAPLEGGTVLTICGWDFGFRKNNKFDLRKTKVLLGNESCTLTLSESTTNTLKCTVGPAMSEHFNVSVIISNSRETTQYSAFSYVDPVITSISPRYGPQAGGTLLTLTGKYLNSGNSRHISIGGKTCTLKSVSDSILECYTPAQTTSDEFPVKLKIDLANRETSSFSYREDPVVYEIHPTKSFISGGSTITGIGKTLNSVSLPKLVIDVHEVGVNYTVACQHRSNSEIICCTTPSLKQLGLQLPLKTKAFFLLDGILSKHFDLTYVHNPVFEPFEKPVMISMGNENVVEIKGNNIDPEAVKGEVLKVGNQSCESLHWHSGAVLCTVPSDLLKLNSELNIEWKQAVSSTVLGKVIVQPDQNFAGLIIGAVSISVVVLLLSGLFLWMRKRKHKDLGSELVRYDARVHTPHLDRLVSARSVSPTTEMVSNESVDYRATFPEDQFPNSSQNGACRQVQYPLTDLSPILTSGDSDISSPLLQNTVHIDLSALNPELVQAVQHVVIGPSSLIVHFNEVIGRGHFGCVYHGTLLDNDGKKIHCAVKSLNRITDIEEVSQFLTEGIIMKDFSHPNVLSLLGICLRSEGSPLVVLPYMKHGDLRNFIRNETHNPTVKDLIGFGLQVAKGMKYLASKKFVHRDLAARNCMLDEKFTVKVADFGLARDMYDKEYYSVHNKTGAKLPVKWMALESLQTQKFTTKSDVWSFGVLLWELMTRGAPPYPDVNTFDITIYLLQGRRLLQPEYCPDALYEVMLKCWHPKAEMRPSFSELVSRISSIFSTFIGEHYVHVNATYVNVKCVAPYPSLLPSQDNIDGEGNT

IL-8 = assay: Phase I study: serum IL-8 levels by electrochemiluminescence; assay type: in vivo, humans
Method: Pre- and post-dose serum is collected for evaluation of pharmacodynamic (PD) biomarkers that could be affected by inhibition of Met signaling. In addition, archival tissue is obtained for exploratory diagnostic assessments.
Serum IL-8 levels (diluted 1:5) were determined using an electrochemiluminescence based method as directed by the manufacturer (Meso Scale Discovery, Gaithersburg Md.; Cat. No. K111ANC).

[3] = Repeat-dose safety study in cynomolgus monkeys; assay type: in vivo; settings: GLP toxicology study
Text: Repeat-dose safety study.

c-met [4] = assay: Binding to c-met in cynomolgus monkeys
KP4 xenograft = assay: PK/PD model of anti-tumor efficacy in KP4 xenograft mice (MTC); settings: individual MTC values (n=177) KP4 mice
Method: PK parameter estimates were used as a forcing function to model the pharmacodynamic (PD) endpoint of tumor progression (PD) in KP4 xenograft mice.
Tumor measurements were taken via with calipers, and mice entered the study with tumor volumes of approximately 200 mm^3. Study data up to 21 days from a total of 177 KP4 mice were used in the modeling analysis. Tumor volumes (mm^3) were converted to mass (mg) assuming 1 mm^3=1 mg tumor tissue. A mixed effects PK/pharmacodynamic (PD) model describing anti-tumor efficacy in KP4 xenograft mice was fit to the tumor data using NONMEM software (Double Precision, version V, level 1.0 UCSF, San Francisco Calif.).
MTC is calculated from the differential equation describing tumor mass where (dTM(t)/dt=0)

[5] = PK study, single IV dose in cynomolgus monkeys; assay type: in vivo
Method: as §1
Pharmacokinetic Assay for MetMAb in Cynomolgus Monkey Serum. A direct ELISA was developed to quantitate MetMAb in cynomolgus monkey serum. Plates were coated with a His-tagged c-met extracellular domain fragment, and diluted samples, standards, and controls were added to the coated plates. F(Ab′)2 fragmented, goat anti-human IgG Fc antibodies conjugated to HRP were added for detection. TMB peroxidase was stopped with […]. The plates were read at an absorbance of 450 nm and 620/630 nm.
The lower limit of quantification of the assay was 1.0 ng/ml and the upper limit of quantification was 32.0 ng/ml. The minimum dilution for neat cynomolgus monkey serum samples was 1/50, resulting in a minimum quantifiable concentration of 50 ng/ml, with an indefinite upper limit.
as §2, §3

[6] = system: KP4 human pancreatic ductal cell carcinoma cells; assay: Dose response study in KP4 xenograft mice; assay type: in vivo; settings: from Day 21 effect vs. dose profile
Method: In a dose response study, female nude (nu/nu) mice (age 6-8 weeks) were inoculated subcutaneously (SC) with 5×10^6 KP4 human pancreatic ductal cell carcinoma cells.
(§4) In all cases, tumors were measured with calipers throughout the study.

[7] = PK study, single IV bolus dose in nude mice; assay type: in vivo
Method: as §1
The expected serum concentration at the time of serum sample collection was estimated based on PK parameters determined in the PK study in non-tumor bearing mice (described above). […] These PK parameters were used to estimate serum concentration by WinNonlin Enterprise Version 5.0.1 (Pharsight Corp., Mountain View, Calif.) for doses tested in IV infusion study.
Pharmacokinetic Assays for MetMAb in Mouse Serum and Rat Serum. […] A direct ELISA assay was developed for quantification of MetMAb in mouse serum and Sprague-Dawley rat serum. Plates were coated with human c-Met-Fc fusion protein to which samples, standards, and dosing solutions were added. Goat anti-human F(Ab′)2 horseradish peroxidase (HRP) was used for detection. Tetrapethyl benzidine (TMB) peroxidase substrate was added for signal development. The substrate reaction was stopped with phosphoric acid. The plates were read at an absorbance of 450 nm. […] The lower limit of quantitation in the assay was 0.47 ng/mL and the upper limit of quantification was 30 ng/mL. The minimum dilution for nude mouse serum samples was 1/10, resulting in a minimum quantifiable concentration of 4.7 ng/mL, with an indefinite upper limit. The minimum dilution for rat serum samples was 1/50, resulting in a minimum quantifiable concentration of 23.5 ng/mL, with an indefinite upper limit.
as §2, §3

[8] = system: KP4 human pancreatic ductal cell carcinoma cells; assay: Dose fractionation study in KP4 xenograft mice; assay type: in vivo; settings: total 2.5, 7.5 or 30 mg/kg as Q1W, Q2W or Q3W
Method: For example, a 30 mg/kg total dose was given as 10 mg/kg Q1W, 15 mg/kg Q2W, or 30 mg/kg Q3W.
as §4

[9] = system: locally advanced or metastatic solid tumors; assay: Phase I study: anti-tumor activity (RECIST); assay type: in vivo, humans
Method: The following activity outcome measures are assessed: objective response, defined as a complete or partial response confirmed≧4 weeks after initial documentation; duration of objective response; and progression-free survival. Objective response and disease progression will be determined using RECIST.
Patient selection criteria.

[10] = Athymic nude mouse, single IV dose
[11] = non-tumor-bearing mice, two-compartmental model

With “MetMAb: recombinant, humanized, monovalent (one-armed) monoclonal antibody directed against human c-met” the Beta half-life [1] was 96 to 120 h, the Binding to c-met (c-met [2]) was “does not bind to c-met” and the “Reduction in circulating IL-8” value (IL-8; 24 h following treatment, subjects with baseline IL-8 >50 pg/ml) was greater than 50%. For the same substance, the “Change in serum IL8 following MetMAb infusions” value (IL-8; most patients with baseline serum IL8 above normal controls) was “decrease in serum IL8”, the “Change in IL-8 expression post-MetMAb treatment” value (IL-8; subjects with less than 50 pg/ml baseline IL-8) was “did not change significantly” and the “Highest non-severely toxic dose” value [3] was 100 mg/kg. The Binding to c-met (c-met [4]) was “binds to c-met”, the “MTC, 90% of values” (KP4 xenograft) was “below 110 μg/mL” and the “Median MTC (Minimum Tumorostatic Concentration)” value (KP4 xenograft) was “approximately 15 μg/mL”. The “Terminal Half-Life” value ([5]; Cynomolgus monkey) was 97.2 h, the V1 ([5]; Cynomolgus monkey) was 0.0338 L/kg and the Vss ([5]; Cynomolgus monkey) was 0.0703 L/kg. The CL ([5]; Cynomolgus monkey (n = 4), linear dose range) was 0.558 mL/h/kg, the “Median efficacious dose (representative)” value [6] was 7.5 mg/kg and the “Minimal efficacious dose (representative)” value [6] was 2.5 mg/kg. For the same substance, the “Terminal Half-Life” value [7, 10] was 113 h, the V1 [7, 10] was 0.0488 L/kg and the Vss [7, 10] was 0.14 L/kg. For the same substance, the Serum disposition ([7]; non-tumor-bearing mice) was “biphasic and exhibited dose-proportionality”, the “CLd (inter-compartmental clearance)” value [7, 11] was 7.92 mL/h/kg and the “V2 (apparent peripheral volume of distribution)” value [7, 11] was 0.0907 L/kg. The “Efficacy at the same dose level with different dose regimens” value [8] was “similar”, the “Progressive disease (patients)” value ([9]; 21 patients, dose escalation stage) was “Three” and the “Response of patient 11009” value ([9]; gastric adenocarcinoma with metastatic liver lesion, CT Jun. 13, 2008, confirmed July 2008) was “complete response”. The “Complete, objective response (patients)” value ([9]; gastric cancer patient, 20 mg/kg cohort) was “one”.
